The record followed here is paper PMC2244710, “The Gammaherpesvirus m2 Protein Manipulates the Fyn/Vav Pathway through a Multidocking Mechanism of Assembly” (PLoS ONE, 2008).

This assay addresses T1, GST fusion of the SH2 domain of mouse Fyn (residues 145-247) (mouse, UniProt P39688 145-247).
T1 construct: SH2 domain of mouse Fyn, residues 145-247; Cloned into pGEX-6P-1; also called GST-SH2 (Fyn); SH2 domain of Fyn; source: Escherichia coli, IPTG induction, purified with glutathione-sepharose beads
Nature of the assay: pull-down; 10 µg of biotinylated pY120 peptide incubated with increasing amounts of purified GST proteins overnight at 4°C; recovered with streptavidin-conjugated beads; anti-GST immunoblot. The conditions noted are these: both partners purified.

Square brackets hold non-standard residues; d marks the D form. Ends that are not written are not given here. * marks the point of attachment. Biotin = O=C1N[C@H]2[C@H](CS[C@H]2CCCCC(=O)*)N1; pY = N[C@@H](Cc1ccc(OP(=O)(O)O)cc1)C(=O)O

T1 sequence (P39688 145-247): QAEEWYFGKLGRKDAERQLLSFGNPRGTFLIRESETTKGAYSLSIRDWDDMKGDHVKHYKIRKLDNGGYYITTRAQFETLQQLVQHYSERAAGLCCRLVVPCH

B1: N-terminal biotinylated, tyrosine phosphorylated M2 peptide incorporating Y120 (SPEENIpYETANSE) (peptide)
peptide: Biotin-SPEENI[pY]ETANSE
notes: region of M2 of MHV-68 incorporating Y120; numbers count on: the final spliced form of the protein; also called pY120 peptide; phosphorylated Y120 peptide; source: synthetic peptide, bought: Sigma
Turning to B1, the binding result is listed as “binds”.
